Consider four molecules from patent publication US20250009854A1 (MACFARLANE BURNET INSTITUTE FOR MEDICAL RESEARCH AND PUBLIC …, published 2025).

Positions count from the first letter of the chain named.

Test [1] deals with T1, dimeric rsFcγRIIIa (V158 form) (UniProt P08637 17-208).
T1 construct: also called dimeric recombinant soluble FcγRIIIa
Briefly: flow cytometry, biotinylated dimeric rsFcγRIIIa + streptavidin-APC on Ramos-S cells opsonised with 5 µg/ml ACE2-Fc. Background: Flow cytometry measures light scatter and fluorescence of single cells or particles in a stream.

For test [2], the target named is T2, dimeric rsFcγRIIa (H131 allelic form) (UniProt P12318 34-217).
T2 construct: also called dimeric recombinant soluble FcγRIIa
T2 sequence: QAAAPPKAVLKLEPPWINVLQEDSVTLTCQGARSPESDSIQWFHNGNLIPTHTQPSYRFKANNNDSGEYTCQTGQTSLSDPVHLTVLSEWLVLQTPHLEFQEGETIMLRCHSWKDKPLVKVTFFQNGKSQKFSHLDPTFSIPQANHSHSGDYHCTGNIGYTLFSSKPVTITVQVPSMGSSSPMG
Briefly: flow cytometry, biotinylated dimeric rsFcγRIIa + streptavidin-APC on Ramos-S cells opsonised with 5 µg/ml ACE2-Fc.

Test [3] concerns the target T2, dimeric rsFcγRIIa (H131 allelic form). Nature of the test: flow cytometry, biotinylated dimeric rsFcγRIIa + streptavidin-APC on Ramos-S cells opsonised with ACE2-Fc.
Test [4] has as its target T3, SARS-CoV-2 spike protein on Ramos-S cells (SARS-CoV-2, UniProt P0DTC2 14-1273).
T3 construct: whole, on cells
Nature of the test: flow cytometry on Ramos-S cells, FITC anti-hIgG-Fc.

T1 sequence (P08637 17-208 F176V limits assumed): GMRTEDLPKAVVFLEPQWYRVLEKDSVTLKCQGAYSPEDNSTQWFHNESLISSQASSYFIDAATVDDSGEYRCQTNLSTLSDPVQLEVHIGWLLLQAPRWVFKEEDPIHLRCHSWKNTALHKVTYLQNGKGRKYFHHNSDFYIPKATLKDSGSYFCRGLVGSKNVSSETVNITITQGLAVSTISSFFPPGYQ

B1: EflACE2-Fc-[change] (Fc fusion)
chain: ETGSTIEEQAKYFLDKFNHEAEDLFYQSSLASWNYNTNITEENVQNMNNAGDKWSAFLKEQSTTAQMYPLQEIQNLTVKLQLQALQQNGSSVLSEDKSKRLNTILNTMSTIYSTGKVCNPDNPQECLLLEPGLNEIMANSLDYNERLWAWESWRSEVGKQLRPLYEEYVVLKNEMARANHYEDYGDYWRGDYEVNGVDGYDYSRGQLIEDVEHTFEEIKPLYEHLHAYVRAKLMNAYPSYISPIGCLPAHLLGDMWGRFWTNLYSLTVPFGQKPNIDVTDAMVDQAWDAQRIFKEAEKFFVSVGLPNMTQGFWEYSMLTDPGNVQKAVCHPTAWDLGKGDFRILMCTKVTMDDFLTAHHEMGHIQYDMAYAAQPFLLRNGANEGFHEAVGEIMSLSAATPKHLKSIGLLSPDFQEDNETEINFLLKQALTIVGTLPFTYMLEKWRWMVFKGEIPKDQWMKKWWEMKREIVGVVEPVPHDETYCDPASLFHVSNDYSFIRYYTRTLYQFQFQEALCQAAKHEGPLHKCDISNSTEAGQKLFNMLRLGKSEPWTLALENVVGAKNMNVRPLLNYFEPLFTWLKDQNKNSFVGWSTDWSPYADQSIKVRISLKSALGDRAYEWNDNEMYLFRSSVAYAMRQYFLKVKNQMILFGEEDVRVANLKPRISFNFFVTAPKNVSDIIPRTEVEKAIRMSRSRINDAFRLNDNSLEFLGIQPTLGPPNQPPVSGGGGSTHTCPPCPAPELLGGPSVFLFPPKPKDTLMISRTPEVTCVVVDVSHEDPEVKFNWYVDGVEVHNAKTKPREEQYNSTYRVVSVLTVLHQDWLNGKEYKCKVSNKALPAPIEKTISKAKGQPREPQVYTLPPSREEMTKNQVSLTCLVKGFYPSDIAVEWESNGQPENNYKTTPPVLDSDGSFFLYSKLTVDKSRWQQGNVFSCSVMFEALHNHYTQKSLSLSPGK
Consider B1, for which the binding result in test [1] and in test [2] was “binds” throughout.

B2: EflACE2-Fc-[change] (Fc fusion)
chain: B1 chain with F937Y
On to B2, for which, in test [3], the binding result is on record as “no binding (tested: 5 µg/ml ACE2-Fc for opsonisation)”.

B3: S2P6-WT mAb (antibody, V domains shown)
VH: EVQLVQSGAEVKKPGASVKVSCKASGYTFTSQYMHWVRQAPGQGLEWIGIINPSGVHTSYAQKFQGRVTLTRDTSTSTLYMELSSLRSEDTAVYYCARGSPKGAFDYWGQGTLVTVSS
VL: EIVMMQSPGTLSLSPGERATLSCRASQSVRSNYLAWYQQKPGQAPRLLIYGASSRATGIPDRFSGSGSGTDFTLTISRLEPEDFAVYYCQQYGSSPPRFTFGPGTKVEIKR
As to B3, in test [4], the binding result was “binds”.

B4: CC40.8-WT mAb (antibody, V domains shown)
VH: EVQLLESGGGLVQPGGSLRLSCAASGFTFSSYVMTWARQAPGKGLEWVSAISGTGYTYYADSVKGRFTVSRDNSKNTLFLQMSSLRAEDTAVYYCAITMAPVVWGQGTTVTVSS
VL: SYELTQPPSVSVSPGQTARITCSGDALPKRYAYWYQQKSGQAPILVIYEDKKRPSGIPERLSGSKSGTVATLTISGAQVEDEADYYCYSTDSSGNHAVFGGGTQLTVLG
With B4, the binding result in test [4] was “binds”.
